{"source": "paper PMC4540320", "about": "“A Newly-Identified Polymorphism in Rhesus Macaque Complement Factor H Modulates Binding Affinity for Meningococcal FHbp” (PLoS ONE, 2015)", "key": {"[1]": {"biological_target": "rhesus macaque serum Factor H, sequence type HP/YP (heterozygous) (rhesus macaque (endogenous in serum))", "assay": "SPR; Biacore X100 Plus, CM5 chip with immobilised goat anti-human FH; FH (~600 RU) captured from a 1:50 serum dilution; FHbp 3.16 to 316 nM in solution, single-cycle kinetics, 1:1 binding model"}, "[2]": {"biological_target": "rhesus macaque serum Factor H, sequence type HP/YS (heterozygous) (rhesus macaque (endogenous in serum))", "assay": "SPR; Biacore X100 Plus, CM5 chip with immobilised goat anti-human FH; FH (~600 RU) captured from a 1:50 serum dilution; FHbp 3.16 to 316 nM in solution, single-cycle kinetics, 1:1 binding model"}, "[3]": {"biological_target": "rhesus macaque serum Factor H, sequence type YS/YP (heterozygous) (rhesus macaque (endogenous in serum))", "assay": "SPR; Biacore X100 Plus, CM5 chip with immobilised goat anti-human FH; FH (~600 RU) captured from a 1:50 serum dilution; FHbp 3.16 to 316 nM in solution, single-cycle kinetics, 1:1 binding model"}, "[4]": {"biological_target": "rhesus macaque serum Factor H, sequence type HP/HP (H352 with P360, homozygous) (rhesus macaque (endogenous in serum))", "assay": "SPR; Biacore X100 Plus, CM5 chip with immobilised goat anti-human FH; FH (~600 RU) captured from a 1:50 serum dilution; FHbp 3.16 to 316 nM in solution, single-cycle kinetics, 1:1 binding model"}, "[5]": {"biological_target": "T1, human complement Factor H (human (endogenous in serum), UniProt P08603 19-1231)", "T1 construct": "also called human FH; human serum FH; source: endogenous, human serum; also purified from the same subject", "T1 sequence (P08603 19-1231)": "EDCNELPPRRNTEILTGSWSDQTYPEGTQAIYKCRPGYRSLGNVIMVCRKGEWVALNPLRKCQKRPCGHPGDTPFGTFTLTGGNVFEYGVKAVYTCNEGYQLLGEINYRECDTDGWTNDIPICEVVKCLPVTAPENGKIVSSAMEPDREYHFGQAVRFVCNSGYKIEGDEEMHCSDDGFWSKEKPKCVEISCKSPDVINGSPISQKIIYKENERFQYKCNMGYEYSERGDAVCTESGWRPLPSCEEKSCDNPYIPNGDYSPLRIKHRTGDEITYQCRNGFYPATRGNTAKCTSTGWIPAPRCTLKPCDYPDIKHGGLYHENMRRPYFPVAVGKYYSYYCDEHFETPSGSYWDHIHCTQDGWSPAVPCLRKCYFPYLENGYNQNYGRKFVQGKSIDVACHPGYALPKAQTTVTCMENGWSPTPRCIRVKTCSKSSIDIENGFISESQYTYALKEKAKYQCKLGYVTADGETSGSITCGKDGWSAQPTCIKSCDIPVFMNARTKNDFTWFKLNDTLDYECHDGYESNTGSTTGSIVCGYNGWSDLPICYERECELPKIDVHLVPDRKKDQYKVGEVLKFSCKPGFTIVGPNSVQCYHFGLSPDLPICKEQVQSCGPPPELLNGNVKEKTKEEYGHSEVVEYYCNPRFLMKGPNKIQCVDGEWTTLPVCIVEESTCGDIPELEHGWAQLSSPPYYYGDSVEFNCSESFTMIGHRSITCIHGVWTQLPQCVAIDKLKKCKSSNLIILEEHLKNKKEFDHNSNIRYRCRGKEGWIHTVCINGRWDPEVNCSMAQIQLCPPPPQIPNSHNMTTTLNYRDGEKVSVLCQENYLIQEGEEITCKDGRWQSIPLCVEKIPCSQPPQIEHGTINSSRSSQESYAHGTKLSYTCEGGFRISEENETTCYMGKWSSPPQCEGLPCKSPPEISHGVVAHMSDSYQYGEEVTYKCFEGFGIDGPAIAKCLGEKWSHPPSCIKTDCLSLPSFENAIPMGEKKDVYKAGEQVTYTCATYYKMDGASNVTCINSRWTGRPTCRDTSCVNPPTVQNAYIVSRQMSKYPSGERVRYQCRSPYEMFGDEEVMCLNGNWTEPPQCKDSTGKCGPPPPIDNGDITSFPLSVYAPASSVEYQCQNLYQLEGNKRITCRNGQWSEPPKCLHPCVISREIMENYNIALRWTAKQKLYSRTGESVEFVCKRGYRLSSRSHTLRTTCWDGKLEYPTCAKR", "assay": "SPR; as the serum capture assay, but with human FH purified from the same subject captured on immobilised goat anti-human FH; FHbp in solution, single-cycle kinetics, 1:1 binding model", "settings": "both partners purified"}, "[6]": {"biological_target": "T1, human complement Factor H", "assay": "SPR; Biacore X100 Plus, CM5 chip with immobilised goat anti-human FH; FH (~600 RU) captured from a 1:50 serum dilution; FHbp 3.16 to 316 nM in solution, single-cycle kinetics, 1:1 binding model", "settings": "one partner purified"}}, "data": [{"molecule": "recombinant Factor H binding protein (FHbp) ID 1 (from UniProt Q9JXV4 20-274) (natural protein)", "values": [{"measurement": "Kd", "setting": "[1]", "result": 18.2, "unit": "nM"}, {"measurement": "kon", "setting": "[1]", "result": 180000, "unit": "M⁻¹ s⁻¹"}, {"measurement": "Kd", "setting": "[2]", "result": 99.5, "unit": "nM"}, {"measurement": "kon", "setting": "[2]", "result": 190000, "unit": "M⁻¹ s⁻¹"}, {"measurement": "Kd", "setting": "[3]", "result": 10.4, "unit": "nM"}, {"measurement": "kon", "setting": "[3]", "result": 180000, "unit": "M⁻¹ s⁻¹"}, {"measurement": "Kd", "setting": "[4]", "result": 100, "unit": "nM"}, {"measurement": "kon", "setting": "[4]", "result": 180000, "unit": "M⁻¹ s⁻¹"}]}, {"molecule": "recombinant Factor H binding protein (FHbp) ID 1 (natural protein, also called meningococcal FHbp; source: recombinant, purified as described previously [14] with a second ion exchange chromatography step (HiTrap SP HP)) CSSGGGGVAADIGAGLADALTAPLDHKDKGLQSLTLDQSVRKNEKLKLAAQGAEKTYGNGDSLNTGKLKNDKVSRFDFIRQIEVDGQLITLESGEFQVYKQSHSALTAFQTEQIQDSEHSGKMVAKRQFRIGDIAGEHTSFDKLPEGGRATYRGTAFGSDDAGGKLTYTIDFAAKQGNGKIEHLKSPELNVDLAAADIKPDGKRHAVISGSVLYNQAEKGSYSLGIFGGKAQEVAGSAEVKTVNGIRHIGLAAKQ", "values": [{"measurement": "Kd", "setting": "[5]", "result": 18.2, "unit": "nM"}, {"measurement": "kon", "setting": "[5]", "result": 220000, "unit": "M⁻¹ s⁻¹"}, {"measurement": "Kd", "setting": "[6]", "result": 19.8, "unit": "nM"}, {"measurement": "kon", "setting": "[6]", "result": 190000, "unit": "M⁻¹ s⁻¹"}]}]}
